{"source": "the nanobody polyreactivity screen of Harvey et al. (2022)", "data": [{"experiment": "yeast display, Sf9 membrane polyspecificity reagent, FACS + sequencing; frameworks hold sequencing errors", "procedure,_shortened": "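Galactose induction of a Saccharomyces cerevisiae BJ5465 synthetic nanobody display library ran 36–48 hours. The cells were then stained for 1 hour at 4 °C with 10% biotinylated, detergent-solubilized Sf9 membrane reagent, pulled down on streptavidin microbeads and FACS-sorted into low and high (top ~1%) gates on expression and reagent-binding fluorescence. Labels for polyreactivity follow the gate of origin.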", "values": [{"sequence": "QVQLVESGGGLVQAGGSLRLSCAASGRIFSAYAMGWYRQAPGKERELVAAITSVGSTKYADSVKGLFTISRDNAKNTVYLQMNSLKPEDTAVYYCAAEYTRSFYIYYRFGYWGQGTQVTVSS", "polyreactivity (PSR sort gate)": "high polyreactivity"}, {"sequence": "QVQIVETGGGLVQAGGSLRLSCAASGFIFSNYARGRYRQAPGKERELVAAISWSGGRTYYADSVKGRFTISRDNAKNSVYLQMNSLKPEDTAVYYCATRYGSASGREYEYWGQGTQVTVSS", "polyreactivity (PSR sort gate)": "high polyreactivity"}, {"sequence": "QVQLQESAGGRQPAPELRGERLYFWLLLMGWYRQAPGEERELVAGINYGASTNYSDSVKGRFTISRDNARNTVYLKMNSLKPGDTAVYYCAVWQPVLIWFYYWGQGTQVTVSS", "polyreactivity (PSR sort gate)": "high polyreactivity"}, {"sequence": "QDQLVESGGGLVQAGGSLRLSCAASGSIFGAYARGWYRQAPGKERELVAAISGSGTSTYYADSVKGRFTISRDNAKNTVYLQMNSLKPEDTAVYYCAADGTYFYIYLGDRFDYWGQGTQVTVSS", "polyreactivity (PSR sort gate)": "low polyreactivity"}, {"sequence": "QVQLVESGGGLVQAGGSLRLSCAASGGTFAPNAMGWYRQAPGKEREFVAAITISGGSTYYADSVKGRFTISRDNAKNTVYLQMNSLKPEDTAVYYCAADYYAWDTYQWYDYWGQGTQVTVSS", "polyreactivity (PSR sort gate)": "high polyreactivity"}, {"sequence": "QVQLVESGGGLVQAGGSLRLSCAASGRTFSKYAMGWYRQAPGKERELVAAIRWSGGSTYYADSVKGRFTISRDNAKNTVYLQMNSLKPEDTAVYYCAKRSRGLKFDYWGQGTQVTVSS", "polyreactivity (PSR sort gate)": "high polyreactivity"}, {"sequence": "QDQLVQSGGGLVQAGGSLRLSCDASGGMFDSNAMGRYRQPPGKERELVAAISDSGGSTYYADSVKGRFTISRDNAKNTVYLQMNSLKPEDTAVYYCAGDSDYHFVNYRFGMDYWGQGTQVTVSS", "polyreactivity (PSR sort gate)": "low polyreactivity"}, {"sequence": "QVQLVESGGGLVQAGGSLRLSCAASGRTFGLYAMGWYRQAPGKERELVAAISYSGGRTYYADSVKGRFTISRDNAKKTVYLQMNILKPEDTAVYYCNKAWFRYYYYRFDYWGLGTQVTVSS", "polyreactivity (PSR sort gate)": "high polyreactivity"}, {"sequence": "QVQLVESGGGLVQAGGSLRLSCAASGFTFHVYAMGWSRQAPGKERELVAAISTGDDTTFYADSVKGRLTISRDNAKNTVYLQMNSLKPEDTAVYYCAAAYGTPYGGYDYWGQGTQVTVSS", "polyreactivity (PSR sort gate)": "low polyreactivity"}, {"sequence": "QVQLVESGGGLVQAGGSLRLSCAASGGIFAWYAMGWYRQAPGKERELVAAIDHSGGSTYYADSVKGRFTISRDNAKNTVYLQMNSLKPEDTAVYYCNAGYYGYWEKYDYWGQGTQVTVSS", "polyreactivity (PSR sort gate)": "low polyreactivity"}, {"sequence": "QVQLVESGGGLVQAGGSLRLSCAASGRTFHSYAMGWYRQAPGKERELVAAIRGRGGTTYYADSVKGRFTFSRDNAKNTVYLQMNSLKPEDTAVYYCNAVVRRYFTAAATYDYWGQGTQVTVSS", "polyreactivity (PSR sort gate)": "high polyreactivity"}, {"sequence": "QVQLVESVGGLVQAGGSLRLSCAASGNTFYVNVMGWYRQAPGKEREFVAAITWIGGSTYYADSVKGRFTISRDNAKNTVYLQMNSLKPEDTAVYYCAADVYNRWWWRAYDYWGQGTQVTVSS", "polyreactivity (PSR sort gate)": "high polyreactivity"}, {"sequence": "QVQLVESGGGLVQAGGSLRISCAASGFIFPYNSMGWYREAPGKERELVARISSGGSTNYADSVKGRFTISRDNAKNTVYLQMHSLKPEDTAVYYCNARYRWGWTYLRYGSYDYWGQGTQVTVSS", "polyreactivity (PSR sort gate)": "high polyreactivity"}, {"sequence": "QVQLVESVGGLVQAGGSLRLTCAASVFTFGYYAMGWYRQAPGKERELVAAITWSGGRTYYADSVKGRFTISRDNAKYTVYLQMNSLKPEDTAVYYCAVETLWQGSEYWGQGTQVTVSS", "polyreactivity (PSR sort gate)": "low polyreactivity"}, {"sequence": "QVQLVESGGGLVQAGGSLRLSCAASGSTFLPNDMGWYRQAPGKERELVAAISWSDGSTYYADSVKGRFTISRDNAKNTVYLQMNSLKPEDTAVYYCNTVGFDYYYYEYDYWGQGTQVTVSS", "polyreactivity (PSR sort gate)": "low polyreactivity"}, {"sequence": "QVQLVESGGGLVQAGGSLRLSCAASGRTFLSYAMGWSRQAPVTERELVATITRRGGSTYYADSVKGRFTISRDNAKNTVYLQMNSLKPEDTAVSYCAAYYRQYSYSEFGYWGQGTQVTVSS", "polyreactivity (PSR sort gate)": "high polyreactivity"}, {"sequence": "QVQLVESGGGLVQAGGSLRLICAASGSIFAGNAMGWYRQAPGKERELVADITSGDSTYYADSVKGRFTISRDNAKNTVYLQMNSLKPEDTAVYYCAADSWDSQVVSYEYWGQGTQVTVSS", "polyreactivity (PSR sort gate)": "low polyreactivity"}, {"sequence": "QVQLVESGGGLVQAGGSLRLSCAASGRTFLTNTMGWYRQAPGKERELVAAISSGGSTKYADSVKGRFTISRDNAKNTVYLQMNSLKPEDTAVYYCAATGWRYGYKYYYWGQGTQVNVSS", "polyreactivity (PSR sort gate)": "high polyreactivity"}, {"sequence": "QVQLVESVGGLVLAGGSLRLSCAASGFTFPRYVMGSYRPAPGKAREFVAAITFSGGSTYYADSVKGRFTIARDNAKNTVYLQMNSLKPEDTAVYYCAAGASLWRLGLKRGYWGQGTQVTVSS", "polyreactivity (PSR sort gate)": "low polyreactivity"}, {"sequence": "QVQLVETGGGLVQAGGSLRLSCAASGSTFESNAMGWYRQAPGKERELVAAISRGGNTYYADSEKGRFTISRDNAKNTVYLQMNSLKPEDTAVYYCNVDRGNPVPPSEYWGQGTQVTVSS", "polyreactivity (PSR sort gate)": "low polyreactivity"}, {"sequence": "QDQLVESGGGLVQAGGSLRLSCAASGSTIRVKAMGWYRLAPGKERELVAGISKSGTSTYYADSVKGRFTISRDNAKNTVYLQMNSLKPEDTAAYYCATHLGRRTSGSRFGYWGQGTQVTVSS", "polyreactivity (PSR sort gate)": "high polyreactivity"}]}]}
